Test results published in patent US20220010003A1 (Boehringer Ingelheim, published 2022).
Positions count from the first letter of the chain named.

Legend:
[1] = molecular target: T1, recombinant human periostin (human, UniProt Q15063 22-836); assay: cell-based or functional assay
T1 sequence: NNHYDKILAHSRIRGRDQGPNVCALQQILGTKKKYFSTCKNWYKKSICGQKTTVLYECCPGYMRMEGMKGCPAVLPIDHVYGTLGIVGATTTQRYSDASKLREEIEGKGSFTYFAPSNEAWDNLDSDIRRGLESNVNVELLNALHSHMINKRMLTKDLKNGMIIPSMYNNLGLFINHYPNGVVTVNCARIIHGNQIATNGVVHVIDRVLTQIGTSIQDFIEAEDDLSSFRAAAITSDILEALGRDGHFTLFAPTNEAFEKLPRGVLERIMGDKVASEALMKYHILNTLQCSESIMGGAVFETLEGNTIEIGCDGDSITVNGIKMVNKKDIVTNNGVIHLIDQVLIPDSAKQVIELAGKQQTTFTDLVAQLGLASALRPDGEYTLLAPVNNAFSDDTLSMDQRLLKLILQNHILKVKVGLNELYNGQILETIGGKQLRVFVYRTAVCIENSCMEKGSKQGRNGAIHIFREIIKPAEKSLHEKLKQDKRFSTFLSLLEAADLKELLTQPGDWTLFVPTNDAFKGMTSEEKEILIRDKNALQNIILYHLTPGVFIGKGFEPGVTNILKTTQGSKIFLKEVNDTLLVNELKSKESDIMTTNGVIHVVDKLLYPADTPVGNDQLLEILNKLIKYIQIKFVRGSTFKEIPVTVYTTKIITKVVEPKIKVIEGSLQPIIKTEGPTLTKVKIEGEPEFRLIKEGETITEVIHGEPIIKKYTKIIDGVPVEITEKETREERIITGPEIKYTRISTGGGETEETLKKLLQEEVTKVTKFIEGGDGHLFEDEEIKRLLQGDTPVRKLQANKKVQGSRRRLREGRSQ

[2] = molecular target: T2, recombinant mouse periostin (mouse, UniProt Q62009-2 24-811, limits assumed); assay: cell-based or functional assay
T2 sequence (looked up): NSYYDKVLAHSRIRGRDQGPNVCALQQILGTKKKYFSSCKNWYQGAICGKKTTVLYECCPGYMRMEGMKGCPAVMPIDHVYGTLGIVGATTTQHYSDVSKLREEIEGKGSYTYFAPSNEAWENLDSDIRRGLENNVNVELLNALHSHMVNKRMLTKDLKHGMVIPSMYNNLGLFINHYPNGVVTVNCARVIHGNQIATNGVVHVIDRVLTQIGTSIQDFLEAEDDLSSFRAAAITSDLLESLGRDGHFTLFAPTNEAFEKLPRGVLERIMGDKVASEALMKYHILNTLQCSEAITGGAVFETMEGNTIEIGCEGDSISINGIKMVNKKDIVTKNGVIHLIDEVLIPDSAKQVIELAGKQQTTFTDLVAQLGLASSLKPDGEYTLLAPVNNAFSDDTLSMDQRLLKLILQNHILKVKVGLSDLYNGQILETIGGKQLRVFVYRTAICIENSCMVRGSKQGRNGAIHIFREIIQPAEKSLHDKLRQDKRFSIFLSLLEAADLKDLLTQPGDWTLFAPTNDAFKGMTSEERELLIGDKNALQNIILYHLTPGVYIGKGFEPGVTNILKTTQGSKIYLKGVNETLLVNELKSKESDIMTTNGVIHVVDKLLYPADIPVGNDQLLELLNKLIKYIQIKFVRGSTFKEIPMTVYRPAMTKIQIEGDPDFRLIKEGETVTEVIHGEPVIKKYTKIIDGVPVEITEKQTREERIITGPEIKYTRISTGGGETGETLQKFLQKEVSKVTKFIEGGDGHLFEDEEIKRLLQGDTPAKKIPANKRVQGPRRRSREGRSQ

NB1246 (V295A) = molecular target: T3, NB1246 (V295A) (human, UniProt Q15063 22-631, limits assumed); assay: ELISA on alanine variants of POSTN EMI-FAS4, second screen
T3 construct: also called POSTN EMI-FAS4 V295A
T3 sequence: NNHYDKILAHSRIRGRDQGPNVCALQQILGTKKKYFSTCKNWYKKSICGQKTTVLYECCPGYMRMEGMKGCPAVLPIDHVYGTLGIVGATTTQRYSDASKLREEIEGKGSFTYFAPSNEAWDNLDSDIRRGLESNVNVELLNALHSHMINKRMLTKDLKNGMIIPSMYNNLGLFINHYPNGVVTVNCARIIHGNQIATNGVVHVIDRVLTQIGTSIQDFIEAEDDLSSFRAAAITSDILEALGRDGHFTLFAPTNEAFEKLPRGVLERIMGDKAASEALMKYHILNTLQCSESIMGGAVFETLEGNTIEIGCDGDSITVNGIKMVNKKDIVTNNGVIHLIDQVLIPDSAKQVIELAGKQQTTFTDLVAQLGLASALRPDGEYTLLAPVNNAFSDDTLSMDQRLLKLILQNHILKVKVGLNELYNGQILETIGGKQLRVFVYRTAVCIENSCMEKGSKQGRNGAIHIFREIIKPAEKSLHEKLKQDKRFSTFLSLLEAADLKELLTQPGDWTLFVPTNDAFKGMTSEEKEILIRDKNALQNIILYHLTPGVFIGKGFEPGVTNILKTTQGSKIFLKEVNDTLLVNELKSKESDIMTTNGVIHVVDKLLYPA

NB1248 (K302A) = molecular target: T4, NB1248 (K302A) (human, UniProt Q15063 22-631, limits assumed); assay: as above
T4 construct: also called POSTN EMI-FAS4 K302A
T4 sequence: T3 sequence with A274V, K281A

- CAA IC50 [1]: 24.3 nM
- CAA IC50 [2]: 26 nM
- loss from the max signal (NB1246 (V295A)): > 50%
- loss from the max signal (NB1248 (K302A)): > 50%
B1: NB0828 (antibody, V domains shown)
VH: QVQLVQSGAEVKKPGASVKVSCKASGYTFTSYGISWVRQAPGQGLEWMGWISAYNGNTNYAQKLQGRVTMTTDTSTSTAYMELRSLRSDDTAVYYCARDMLVVPFDYWGQGTLVTVSS
VL: QSVLTQSSSASGTPGQTVTVSCSGSSSDIGSNRVNWYQQLPGTAPKLLIYSNDQRPSGVPDRFSGSKSGTSASLAISGLQSADEADYYCAAWDDSLSTYVFGSGTKVTVL
